The values below come from patent publication US20230218715A1.

Experiment in all cases: cell-based or functional assay
Test [1] concerns the target S protein of SARS-CoV strain Frank (SARS-CoV strain Frank).
For test [2], the target named is S protein of SARS-CoV strain Tor-II (SARS-CoV strain Tor-II) (UniProt P59594).
For test [3], the target named is S protein of SARS-CoV-2 strain USA-WA1/2020 (SARS-CoV-2 strain USA-WA1/2020) (UniProt P0DTC2).
Test [4] has as its target S protein of SARS-CoV strain CuHK (SARS-CoV strain CuHK).
Test [5] deals with S protein of SARS-CoV strain Urbani (SARS-CoV strain Urbani).
Test [6] addresses S protein of MERS-CoV strain EMC/2012 (MERS-CoV strain EMC/2012) (UniProt K9N5Q8).
Test [7] concerns the target S protein of HCoV strain OC43 (HCoV OC43) (UniProt P36334).
Test [8] deals with S protein of HCoV strain NL63 (HCoV NL63) (UniProt Q6Q1S2).
Test [9] addresses S protein of HCoV strain 229E (HCoV 229E) (UniProt P15423).
Chain of UniProt P15423 (P15423 16-1173): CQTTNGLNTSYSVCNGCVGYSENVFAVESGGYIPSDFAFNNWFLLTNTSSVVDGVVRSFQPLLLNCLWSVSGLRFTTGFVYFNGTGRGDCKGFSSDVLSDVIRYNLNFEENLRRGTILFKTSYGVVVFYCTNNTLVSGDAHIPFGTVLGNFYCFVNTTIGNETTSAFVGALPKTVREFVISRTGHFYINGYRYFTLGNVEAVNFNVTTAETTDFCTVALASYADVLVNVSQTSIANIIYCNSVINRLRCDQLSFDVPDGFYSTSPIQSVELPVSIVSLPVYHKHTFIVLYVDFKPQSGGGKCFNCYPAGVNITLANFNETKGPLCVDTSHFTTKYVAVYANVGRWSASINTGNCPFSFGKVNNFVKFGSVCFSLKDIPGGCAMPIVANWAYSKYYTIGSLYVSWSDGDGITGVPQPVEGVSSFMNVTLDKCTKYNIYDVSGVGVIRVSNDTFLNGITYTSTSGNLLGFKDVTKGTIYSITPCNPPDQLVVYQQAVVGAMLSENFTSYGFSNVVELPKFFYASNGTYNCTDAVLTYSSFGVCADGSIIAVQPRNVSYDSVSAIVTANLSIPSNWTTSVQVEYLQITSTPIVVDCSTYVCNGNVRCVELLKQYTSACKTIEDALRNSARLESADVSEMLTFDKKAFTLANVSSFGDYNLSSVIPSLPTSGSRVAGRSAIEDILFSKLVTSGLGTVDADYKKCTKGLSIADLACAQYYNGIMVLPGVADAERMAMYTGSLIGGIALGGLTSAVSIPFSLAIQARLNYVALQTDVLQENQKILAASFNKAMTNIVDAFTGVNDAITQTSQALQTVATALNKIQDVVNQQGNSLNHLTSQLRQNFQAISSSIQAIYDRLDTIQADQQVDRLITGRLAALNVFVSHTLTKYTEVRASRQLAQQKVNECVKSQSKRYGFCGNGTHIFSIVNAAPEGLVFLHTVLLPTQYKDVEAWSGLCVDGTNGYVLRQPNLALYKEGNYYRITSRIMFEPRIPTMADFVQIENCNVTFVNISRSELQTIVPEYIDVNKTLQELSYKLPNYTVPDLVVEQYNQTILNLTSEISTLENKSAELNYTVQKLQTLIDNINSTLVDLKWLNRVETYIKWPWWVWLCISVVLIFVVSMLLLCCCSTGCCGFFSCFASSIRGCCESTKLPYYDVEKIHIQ

Chain of UniProt P36334 (P36334 14-1353): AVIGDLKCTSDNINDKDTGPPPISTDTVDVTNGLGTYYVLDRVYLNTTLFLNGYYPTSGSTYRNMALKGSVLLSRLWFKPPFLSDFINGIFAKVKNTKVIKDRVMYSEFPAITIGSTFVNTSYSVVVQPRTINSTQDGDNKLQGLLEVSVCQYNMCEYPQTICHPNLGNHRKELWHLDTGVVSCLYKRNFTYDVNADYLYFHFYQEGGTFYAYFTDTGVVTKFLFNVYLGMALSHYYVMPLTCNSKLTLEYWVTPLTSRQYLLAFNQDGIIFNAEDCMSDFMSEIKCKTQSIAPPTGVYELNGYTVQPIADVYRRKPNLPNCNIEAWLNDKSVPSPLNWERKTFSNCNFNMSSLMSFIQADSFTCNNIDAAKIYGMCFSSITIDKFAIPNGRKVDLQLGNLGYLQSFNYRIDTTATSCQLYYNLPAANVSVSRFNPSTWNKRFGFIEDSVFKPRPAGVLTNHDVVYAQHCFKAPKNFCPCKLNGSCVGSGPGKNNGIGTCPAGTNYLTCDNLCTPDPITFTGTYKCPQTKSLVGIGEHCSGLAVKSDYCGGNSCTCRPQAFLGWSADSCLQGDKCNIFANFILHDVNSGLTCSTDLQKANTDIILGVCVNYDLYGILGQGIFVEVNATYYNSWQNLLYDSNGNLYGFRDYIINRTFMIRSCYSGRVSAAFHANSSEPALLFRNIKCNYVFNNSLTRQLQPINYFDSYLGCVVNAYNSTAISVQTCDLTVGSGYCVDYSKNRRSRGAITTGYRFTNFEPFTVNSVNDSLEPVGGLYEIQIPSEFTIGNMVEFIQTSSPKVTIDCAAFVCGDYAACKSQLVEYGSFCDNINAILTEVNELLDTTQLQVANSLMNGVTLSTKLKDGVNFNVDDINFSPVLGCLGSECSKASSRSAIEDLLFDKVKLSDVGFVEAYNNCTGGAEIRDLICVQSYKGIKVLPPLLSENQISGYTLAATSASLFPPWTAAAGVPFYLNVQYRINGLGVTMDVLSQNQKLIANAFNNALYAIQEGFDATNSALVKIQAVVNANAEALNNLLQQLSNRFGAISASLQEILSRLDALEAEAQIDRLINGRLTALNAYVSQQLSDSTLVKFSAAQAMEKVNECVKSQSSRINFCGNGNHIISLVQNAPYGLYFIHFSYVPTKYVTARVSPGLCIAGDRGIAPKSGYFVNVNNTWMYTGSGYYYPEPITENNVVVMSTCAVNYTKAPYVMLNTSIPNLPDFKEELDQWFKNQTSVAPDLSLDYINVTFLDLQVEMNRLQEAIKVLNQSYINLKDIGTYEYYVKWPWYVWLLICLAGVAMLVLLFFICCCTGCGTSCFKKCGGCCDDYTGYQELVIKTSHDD
Chain of UniProt K9N5Q8 (K9N5Q8 18-1353): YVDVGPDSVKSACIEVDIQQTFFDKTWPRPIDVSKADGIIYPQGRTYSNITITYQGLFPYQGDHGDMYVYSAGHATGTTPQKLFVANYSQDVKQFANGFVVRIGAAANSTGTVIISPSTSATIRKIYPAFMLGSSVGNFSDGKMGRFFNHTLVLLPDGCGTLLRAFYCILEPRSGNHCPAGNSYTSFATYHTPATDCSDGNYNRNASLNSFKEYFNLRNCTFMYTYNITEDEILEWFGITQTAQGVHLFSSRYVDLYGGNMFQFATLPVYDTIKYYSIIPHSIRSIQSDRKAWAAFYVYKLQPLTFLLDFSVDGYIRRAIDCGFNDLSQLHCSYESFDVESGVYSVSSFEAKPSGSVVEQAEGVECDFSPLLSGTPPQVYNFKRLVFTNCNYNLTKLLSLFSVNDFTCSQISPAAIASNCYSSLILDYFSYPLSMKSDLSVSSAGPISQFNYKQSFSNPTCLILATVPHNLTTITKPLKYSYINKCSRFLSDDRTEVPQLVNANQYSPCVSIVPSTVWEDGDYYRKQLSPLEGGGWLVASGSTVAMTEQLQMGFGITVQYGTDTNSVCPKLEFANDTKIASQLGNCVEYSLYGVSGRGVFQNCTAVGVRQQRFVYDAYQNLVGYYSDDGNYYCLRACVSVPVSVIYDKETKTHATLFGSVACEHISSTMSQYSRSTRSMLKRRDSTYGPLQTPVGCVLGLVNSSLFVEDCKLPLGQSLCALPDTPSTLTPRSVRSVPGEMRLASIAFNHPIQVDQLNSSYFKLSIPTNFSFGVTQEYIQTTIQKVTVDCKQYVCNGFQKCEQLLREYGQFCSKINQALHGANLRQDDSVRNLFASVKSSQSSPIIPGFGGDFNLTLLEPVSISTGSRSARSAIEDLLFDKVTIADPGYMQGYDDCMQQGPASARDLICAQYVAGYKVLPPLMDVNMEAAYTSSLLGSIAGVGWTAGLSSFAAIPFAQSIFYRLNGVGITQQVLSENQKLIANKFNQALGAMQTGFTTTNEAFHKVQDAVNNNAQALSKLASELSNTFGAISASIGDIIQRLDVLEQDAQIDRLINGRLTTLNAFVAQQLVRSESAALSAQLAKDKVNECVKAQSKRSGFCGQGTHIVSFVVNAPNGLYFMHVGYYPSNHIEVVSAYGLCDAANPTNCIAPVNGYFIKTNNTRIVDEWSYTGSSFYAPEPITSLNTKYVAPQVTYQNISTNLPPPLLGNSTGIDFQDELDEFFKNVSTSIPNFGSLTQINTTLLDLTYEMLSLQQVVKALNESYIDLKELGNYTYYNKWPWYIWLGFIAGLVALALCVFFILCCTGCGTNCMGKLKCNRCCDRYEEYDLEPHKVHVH

For wild-type griffithsin, the Antiviral activity EC50 in test [1] is 1.19 mg/L; in test [2], 0.61 mg/L; in test [3], below 0.1 mg/L; in [4], 0.78 mg/L; in test [5], 0.61 mg/L; in [6], below 0.124 mg/L. In addition, the Antiviral activity EC50 was 0.16 mg/L in test [7], below 0.0032 mg/L in [8] and 0.18 mg/L in [9].
